Article PMC4126377

Target: α- and β-tropomyosin
Test: GST pull-down
Settings: all curves start at 1 at 7.5 µg, read off a plot

## GST-nebulin super repeat 18 (S18), wild type (from UniProt P20929-3) p.Ser6366Ile
sub-panel NEB ex122 (super repeat 18), curve 122m, 15 µg α- and β-tropomyosin, parent: est. 1.07
  response (relative intensity): 1.08
sub-panel NEB ex122 (super repeat 18), curve 122m, 30 µg α- and β-tropomyosin, parent: est. 1.18
  response (relative intensity): 1.19
sub-panel NEB ex122 (super repeat 18), curve 122m, 60 µg α- and β-tropomyosin, parent: est. 1.18
  response (relative intensity): 1.2

## GST-nebulin super repeat 22 (S22), wild type (from UniProt P20929-3) p.Thr7382Pro
sub-panel NEB ex151 (super repeat 22), curve 151m, 15 µg α- and β-tropomyosin, parent: est. 1.28
  response (relative intensity): 1.12
sub-panel NEB ex151 (super repeat 22), curve 151m, 30 µg α- and β-tropomyosin, parent: est. 1.33
  response (relative intensity): 1.17
sub-panel NEB ex151 (super repeat 22), curve 151m, 60 µg α- and β-tropomyosin, parent: est. 1.34
  response (relative intensity): 1.18

## GST-nebulin super repeat 9 (S9), wild type (from UniProt P20929-3) p.Glu2431Lys
sub-panel NEB ex54 (super repeat 9), curve 54m, 15 µg α- and β-tropomyosin, parent: est. 1.25
  response (relative intensity): 1.27
sub-panel NEB ex54 (super repeat 9), curve 54m, 30 µg α- and β-tropomyosin, parent: est. 1.30
  response (relative intensity): 1.36
sub-panel NEB ex54 (super repeat 9), curve 54m, 60 µg α- and β-tropomyosin, parent: est. 1.30
  response (relative intensity): 1.37
